Experimental data from patent publication US20260150817A1 (LEVERAGEN, published 2026).
Read-outs that look alike come from different tables or passages of the source.

Columns and labels:
[1] = molecular target: T1, SARS-Cov2 Spike Active Trimer SAT (R&D Systems; Catalog No. 10549-CV) (SARS-CoV-2, UniProt P0DTC2 16-1211); experiment: ELISA, serially diluted purified Nb-Fc against SAT antigen
T1 construct: also called SARS-COV2 Spike Active Trimer protein; recombinant SAT protein

[2] = molecular target: T1, SARS-Cov2 Spike Active Trimer SAT (R&D …); experiment: SPR (Carterra)
[3] = molecular target: T1, SARS-Cov2 Spike Active Trimer SAT (R&D …)
[4] = molecular target: T1, SARS-Cov2 Spike Active Trimer SAT (R&D …); remark: listed apart in the source

| Binder | EC50 [1] | Kd [2] | Kd [3] | koff [4] | kon [4] | Kd [4] |
| --- | --- | --- | --- | --- | --- | --- |
| M2S521_623 Nb-Fc (Fc fusion, also called LVGN-S521623) EVQLQQSGPELVKPGASVKISCKASGYTFTDYYMKWEKQSHGKSLEWIGDINPNNGGTRYNQKFRGKATLTVDKSSSTAYMELRSLTSEDSAVYYCARLEDDYYGYAVDYWGQGTSVTVSS | 0.054 nM |  |  |  |  |  |
| M2S521_72 Nb-Fc (Fc fusion, also called LVGN-S52172) EVQLQQSGPELVKPGASVKISCKASGYTFTDYYMKWAKQSHGKSLEWIGHINPVNGDTSYNQKFKGKATLTVDKSSSTVYMELRSLTSEDSAVYYCARLEDGYYGYTMDYWGQGTSVTVSS | 0.063 nM |  |  |  |  |  |
| M2S521_193 Nb-Fc (Fc fusion, also called LVGN-S521193) EVQLQQSGPELVKPGASVKISCKASGYTFTDYYMKWVKQSHGKSLEWIGDINPNNGGARYNQKFKGRATLTVDKSSSTAYMELRSLTSEDSAVYYCSRLEDGYYGYAVDYWGQGTSVTVSS | 0.085 nM |  |  |  |  |  |
| M2S521_378 Nb-Fc (Fc fusion, also called LVGN-S521378) EVQLQQSGPELVKPGASVKISCKASGYTFTDYYMKWVKQSHGKSLEWIGDINPKNGGTNYNQKFKDKATLTVDKSSSTAYMELRSLTSEDSAVYYCARLEDGYYGYAIDYWSQGTSVTVSS | 0.081 nM |  |  |  |  |  |
| MS521_35 Nb-Fc (Fc fusion, also called LVGN-S52135) EVQLQQSGPELVKPGASVKISCKASGYTFTDYYMKWVKQRHGQSLEWIGNINPTNGDTNYSQNFKGKATLTVDKSSTTAYMELRSLTSEDSAVYYCARLEDGYYGYAVDYWGQGTSVTVSS | 0.024 nM | 5.3 nM | 9.09 nM | 0.000685 s⁻¹ | 75300 M⁻¹ s⁻¹ |  |
| M320_5 Nb-Fc (Fc fusion, also called LVGN-S3205) EVQLQQSGPELVKPGASVKMSCKASGYTFTDYYIKWEKQSHGKSLEWIGDINPKNGETFYNQQFKGKATLTVDKSSSTAYMQLNSLTSEDSAVYYCARKEYGDYGYAVDYWGQGTSVTVSS | 0.024 nM | 3.17 nM | 1.21 nM | 0.000143 s⁻¹ | 135000 M⁻¹ s⁻¹ | 1.06 nM |
| M2S320_75 Nb-Fc (Fc fusion, also called LVGN-S32075) EVQLQQSGPELVKPGASVKMSCKASGYTFTDYYMKWLKQNHGKSLEWIGDINPNNGDTFYNQKFKGKATLTVDTSSSTAYMQLNSLTSEDSAVYYCARKEYGDYGYATDYWGQGTSVTVSS | 0.068 nM |  |  |  |  |  |
| M2S320_377 Nb-Fc (Fc fusion, also called LVGN-S320377) EVQLQQSGPELVKPGASVKMSCKASGYTFTDYYVKWKKQSHGKSLEWIGDINPNNGDTFYNQKFKDKATLTVDKSSSTAYMQLNSLTSEDSAVYYCARKEYGNFGYAVDYWGQGTSVTVSS | 0.097 nM |  |  |  |  |  |
